To fix the notation:
B1: F1*; the commonest letter at each place (parent)
chain: GAGACCGCAACTGAAAAGTTGTTATCACTTGTCGTAAGACACTTTGGATGGGTTGAAGTTCTGCACGTAGAAGCAAAAGGC

Variants of B1 are the subject of this series. Put plainly: fraction ligated after 30 min (ligated reads / total reads); higher = more ligase activity. The following applies: with F1*sub RNA substrate (template-directed ligation), 42 °C. On the procedure: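 Chip-synthesised pool of F1* ligase ribozyme variants (all single and double substitutions, single, double and triple deletions in the catalytic core and GAA bulge, plus designed variants) was transcribed with T7 and reacted as a pool with excess substrate F1*sub for 30 min at 42 C in 50 mM EPPS pH 8.5, 25 mM MgCl2. Ligated and unligated bands were separated by PAGE, barcoded by RT and deep sequenced; fraction ligated = ligated reads / total reads per variant, relative activity = FL / FL of wild type (0.826). Sequences are the DNA template of the ribozyme.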
As to GAGACCGCAACTGAAAAGTTGTAATCACTTGTCGTAAGCCACTTTGGATGGGTTGAAGTTCTGCACGTAGAAGCAAAAGGC [T23A A39C], the fraction ligated turned out to be 0.789.

Take GAGACCGCAACTGAAAAGTTGTAATCACTTGTCGTAAGGCACTTTGGATGGGTTGAAGTTCTGCACGTAGAAGCAAAAGGC [T23A A39G]: the fraction ligated came to 0.819.

Regarding GAGACCGCAACTGAAAAGTTGTAATCACTTGTCGTAAGTCACTTTGGATGGGTTGAAGTTCTGCACGTAGAAGCAAAAGGC [T23A A39T], the fraction ligated came out at 0.794.

With GAGACCGCAACTGAAAAGTTGTAATCACTTGTCGTAAGACACTTTGGTTGGGTTGAAGTTCTGCACGTAGAAGCAAAAGGC [T23A A48T], the fraction ligated was 0.68.

As for GAGACCGCAACTGAAAAGTTGTAATCACTTGTCGTAAGACACTTTGGCTGGGTTGAAGTTCTGCACGTAGAAGCAAAAGGC [T23A A48C], the fraction ligated is 0.727.

In the case of GAGACCGCAACTGAAAAGTTGTAATCACTTGTCGTAAGACACTTTGGGTGGGTTGAAGTTCTGCACGTAGAAGCAAAAGGC [T23A A48G], the fraction ligated amounted to 0.596.

GAGACCGCAACTGAAAAGTTGTAATCACTTGTCGTAAGACTCTTTGGATGGGTTGAAGTTCTGCACGTAGAAGCAAAAGGC [T23A A41T]: the fraction ligated is 0.807.

For the variant GAGACCGCAACTGAAAAGTTGTAATCACTTGTCGTAAGACGCTTTGGATGGGTTGAAGTTCTGCACGTAGAAGCAAAAGGC [T23A A41G], the fraction ligated is 0.765.

Regarding GAGACCGCAACTGAAAAGTTGTAATCACTTGTCGTAAGACCCTTTGGATGGGTTGAAGTTCTGCACGTAGAAGCAAAAGGC [T23A A41C], the fraction ligated came to 0.757.

Consider GAGACCGCAACTGAAAAGTTGTAATCACTTGTCGTAAGACACTTTGGATGGGTTGCAGTTCTGCACGTAGAAGCAAAAGGC [T23A A56C], for which the fraction ligated came out at 0.653.

On to GAGACCGCAACTGAAAAGTTGTAATCACTTGTCGTAAGACACTTTGGATGGGTTGGAGTTCTGCACGTAGAAGCAAAAGGC [T23A A56G], for which the fraction ligated was found to be 0.686.

On to GAGACCGCAACTGAAAAGTTGTAATCACTTGTCGTAAGACACTTTGGATGGGTTGTAGTTCTGCACGTAGAAGCAAAAGGC [T23A A56T], for which the fraction ligated is 0.754.

Consider GAGACCGCAACTGAAAAGTTGTAATCAGTTGTCGTAAGACACTTTGGATGGGTTGAAGTTCTGCACGTAGAAGCAAAAGGC [T23A C28G], for which the fraction ligated stood at 0.804.

For GAGACCGCAACTGAAAAGTTGTAATCATTTGTCGTAAGACACTTTGGATGGGTTGAAGTTCTGCACGTAGAAGCAAAAGGC [T23A C28T], the fraction ligated is 0.753.

Take GAGACCGCAACTGAAAAGTTGTAATCAATTGTCGTAAGACACTTTGGATGGGTTGAAGTTCTGCACGTAGAAGCAAAAGGC [T23A C28A]: the fraction ligated was 0.787.

Take GAGACCGCAACTGAAAAGTTGTAATCACTTGTAGTAAGACACTTTGGATGGGTTGAAGTTCTGCACGTAGAAGCAAAAGGC [T23A C33A]: the fraction ligated came out at 0.855.

For the variant GAGACCGCAACTGAAAAGTTGTAATCACTTGTTGTAAGACACTTTGGATGGGTTGAAGTTCTGCACGTAGAAGCAAAAGGC [T23A C33T], the fraction ligated was determined as 0.848.

Regarding GAGACCGCAACTGAAAAGTTGTAATCACTTGTGGTAAGACACTTTGGATGGGTTGAAGTTCTGCACGTAGAAGCAAAAGGC [T23A C33G], the fraction ligated came to 0.838.

In the case of GAGACCGCAACTGAAAAGTTGTAATTACTTGTCGTAAGACACTTTGGATGGGTTGAAGTTCTGCACGTAGAAGCAAAAGGC [T23A C26T], the fraction ligated was found to be 0.794.

Turning to GAGACCGCAACTGAAAAGTTGTAATGACTTGTCGTAAGACACTTTGGATGGGTTGAAGTTCTGCACGTAGAAGCAAAAGGC [T23A C26G], the fraction ligated was determined as 0.116.

Take GAGACCGCAACTGAAAAGTTGTAATAACTTGTCGTAAGACACTTTGGATGGGTTGAAGTTCTGCACGTAGAAGCAAAAGGC [T23A C26A]: the fraction ligated was 0.318.

In the case of GAGACCGCAACTGAAAAGTTGTAATCCCTTGTCGTAAGACACTTTGGATGGGTTGAAGTTCTGCACGTAGAAGCAAAAGGC [T23A A27C], the fraction ligated stood at 0.82.

For the variant GAGACCGCAACTGAAAAGTTGTAATCTCTTGTCGTAAGACACTTTGGATGGGTTGAAGTTCTGCACGTAGAAGCAAAAGGC [T23A A27T], the fraction ligated was found to be 0.794.

Take GAGACCGCAACTGAAAAGTTGTAATCGCTTGTCGTAAGACACTTTGGATGGGTTGAAGTTCTGCACGTAGAAGCAAAAGGC [T23A A27G]: the fraction ligated was determined as 0.794.

As to GAGACCGCAACTGAAAAGTTGTAATCACTTGTCGTAAGACACTTTGGATGGGTTGATGTTCTGCACGTAGAAGCAAAAGGC [T23A A57T], the fraction ligated is 0.813.

In the case of GAGACCGCAACTGAAAAGTTGTAATCACTTGTCGTAAGACACTTTGGATGGGTTGAGGTTCTGCACGTAGAAGCAAAAGGC [T23A A57G], the fraction ligated came out at 0.818.

For the variant GAGACCGCAACTGAAAAGTTGTAATCACTTGTCGTAAGACACTTTGGATGGGTTGACGTTCTGCACGTAGAAGCAAAAGGC [T23A A57C], the fraction ligated worked out at 0.805.

On to GAGACCGCAACTGAAAAGTTGTAATCACTTGTCGTTAGACACTTTGGATGGGTTGAAGTTCTGCACGTAGAAGCAAAAGGC [T23A A36T], for which the fraction ligated is 0.838.

In the case of GAGACCGCAACTGAAAAGTTGTAATCACTTGTCGTGAGACACTTTGGATGGGTTGAAGTTCTGCACGTAGAAGCAAAAGGC [T23A A36G], the fraction ligated turned out to be 0.847.

In the case of GAGACCGCAACTGAAAAGTTGTAATCACTTGTCGTCAGACACTTTGGATGGGTTGAAGTTCTGCACGTAGAAGCAAAAGGC [T23A A36C], the fraction ligated came to 0.826.

On to GAGACCGCAACTGAAAAGTTGTAATCACTTGTCGTATGACACTTTGGATGGGTTGAAGTTCTGCACGTAGAAGCAAAAGGC [T23A A37T], for which the fraction ligated was 0.811.

For the variant GAGACCGCAACTGAAAAGTTGTAATCACTTGTCGTAGGACACTTTGGATGGGTTGAAGTTCTGCACGTAGAAGCAAAAGGC [T23A A37G], the fraction ligated was found to be 0.84.

For the variant GAGACCGCAACTGAAAAGTTGTAATCACTTGTCGTACGACACTTTGGATGGGTTGAAGTTCTGCACGTAGAAGCAAAAGGC [T23A A37C], the fraction ligated turned out to be 0.82.

As to GAGACCGCAACTGAAAAGTTGTATTCACTTGTCGTAAGACACTTTGGATGGGTTGAAGTTCTGCACGTAGAAGCAAAAGGC [T23A A24T], the fraction ligated was 0.781.

The values above are taken from the supplement of paper PMC6755084.
